The results in this text go back to paper PMC11256085.

The target of this assay is EnfB, ThiF-like adenylyltransferase (TLAT) (Enterococcus faecium strain FDAARGOS_397 (methods); E. faecalis FDAARGOS_397 (results)).

Substance “EnfA with Trp18 substituted by Ala (peptide)” yielded a conversion of the EnfA variant by EnfB (in vitro enzyme assay, LC-MS) of 2.1%.
